Laboratory results taken from patent US20210122826A1 (MIT, published 2021).

T1: cynomolgus CD161 (cynomolgus)
T1 construct: UniProt A0A2K5WYI1; also called cynoCD161
T1 chain: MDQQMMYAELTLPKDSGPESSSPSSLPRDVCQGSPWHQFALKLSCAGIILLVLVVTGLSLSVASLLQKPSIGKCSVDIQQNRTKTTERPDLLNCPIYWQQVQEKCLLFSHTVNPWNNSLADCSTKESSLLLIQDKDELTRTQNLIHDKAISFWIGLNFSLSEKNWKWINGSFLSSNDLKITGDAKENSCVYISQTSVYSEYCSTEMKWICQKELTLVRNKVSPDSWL

T2: Human KLRF1 (human, UniProt Q9NZS2 1-231)
T2 construct: also called hKLRF1
T2 sequence: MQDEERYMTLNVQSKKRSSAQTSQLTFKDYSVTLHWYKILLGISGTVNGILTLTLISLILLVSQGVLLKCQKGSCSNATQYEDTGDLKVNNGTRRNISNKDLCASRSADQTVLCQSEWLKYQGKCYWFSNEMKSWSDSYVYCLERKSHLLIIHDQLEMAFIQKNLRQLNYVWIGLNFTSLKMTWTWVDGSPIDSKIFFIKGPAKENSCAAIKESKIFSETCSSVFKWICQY

T3: Human KLRG1 (human, UniProt Q96E93 1-195)
T3 construct: also called hKLRG1
T3 sequence: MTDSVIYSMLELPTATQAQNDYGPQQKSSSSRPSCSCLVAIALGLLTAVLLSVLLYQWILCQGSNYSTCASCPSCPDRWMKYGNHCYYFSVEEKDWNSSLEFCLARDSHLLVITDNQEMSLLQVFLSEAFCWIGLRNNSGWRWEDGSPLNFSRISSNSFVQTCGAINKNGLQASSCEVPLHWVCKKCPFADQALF

T4: Human CD209 (human, UniProt Q9NNX6 1-404)
T4 construct: also called hCD209
T4 sequence: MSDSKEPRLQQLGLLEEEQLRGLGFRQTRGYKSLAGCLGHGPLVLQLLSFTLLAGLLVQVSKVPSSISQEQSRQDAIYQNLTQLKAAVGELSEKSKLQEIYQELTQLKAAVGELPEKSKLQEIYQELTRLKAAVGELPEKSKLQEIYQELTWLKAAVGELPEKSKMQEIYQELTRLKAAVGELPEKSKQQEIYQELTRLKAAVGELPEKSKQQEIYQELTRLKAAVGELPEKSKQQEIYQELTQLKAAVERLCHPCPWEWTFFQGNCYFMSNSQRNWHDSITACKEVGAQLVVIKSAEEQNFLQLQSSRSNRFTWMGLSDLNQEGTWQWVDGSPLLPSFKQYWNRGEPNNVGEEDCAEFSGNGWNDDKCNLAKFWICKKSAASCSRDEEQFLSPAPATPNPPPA

T5: Human CD94 (human, UniProt Q13241 1-179)
T5 construct: also called hCD94
T5 sequence: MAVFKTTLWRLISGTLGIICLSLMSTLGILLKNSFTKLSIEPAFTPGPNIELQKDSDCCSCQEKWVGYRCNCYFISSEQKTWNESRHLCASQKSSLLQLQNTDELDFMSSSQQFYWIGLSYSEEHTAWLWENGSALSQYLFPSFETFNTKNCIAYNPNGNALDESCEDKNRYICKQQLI

T6: Human Clec7A (human, UniProt Q9BXN2 1-247)
T6 construct: also called hClec7A
T6 sequence: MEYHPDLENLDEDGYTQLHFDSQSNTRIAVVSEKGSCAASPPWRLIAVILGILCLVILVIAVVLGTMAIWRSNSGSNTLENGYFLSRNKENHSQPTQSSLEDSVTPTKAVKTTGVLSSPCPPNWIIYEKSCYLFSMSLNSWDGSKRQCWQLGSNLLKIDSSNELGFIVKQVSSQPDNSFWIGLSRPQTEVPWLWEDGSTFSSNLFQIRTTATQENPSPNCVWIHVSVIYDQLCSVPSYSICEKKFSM

T7: Human Clec4E (human, UniProt Q9ULY5 1-219)
T7 construct: also called hClec4E
T7 sequence: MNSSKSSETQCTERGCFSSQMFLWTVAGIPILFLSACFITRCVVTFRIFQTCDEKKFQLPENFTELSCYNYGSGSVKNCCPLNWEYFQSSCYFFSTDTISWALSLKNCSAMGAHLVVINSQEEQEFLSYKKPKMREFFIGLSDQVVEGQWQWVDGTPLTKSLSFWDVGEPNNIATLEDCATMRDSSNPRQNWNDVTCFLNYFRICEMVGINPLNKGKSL


Assays:
[1] = target: T1, cynomolgus CD161; experiment: flow, Jurkat
[2] = target: T2, Human KLRF1; experiment: flow, Jurkat, 100 nM Ab
[3] = target: T3, Human KLRG1; experiment: flow, Jurkat, 100 nM Ab
[4] = target: T8, Human Clec9A (human, UniProt Q6UXN8 1-241); experiment: flow, Jurkat, 100 nM Ab
T8 construct: also called hClec9A
T8 sequence (Q6UXN8 whole entry): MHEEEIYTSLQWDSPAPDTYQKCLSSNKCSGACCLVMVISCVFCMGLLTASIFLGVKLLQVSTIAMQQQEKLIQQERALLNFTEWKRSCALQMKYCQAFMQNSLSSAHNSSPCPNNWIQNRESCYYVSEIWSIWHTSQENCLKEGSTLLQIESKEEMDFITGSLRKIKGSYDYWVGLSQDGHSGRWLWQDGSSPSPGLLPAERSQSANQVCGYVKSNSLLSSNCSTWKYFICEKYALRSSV

[5] = target: T4, Human CD209; experiment: flow, Jurkat, 100 nM Ab
[6] = target: T5, Human CD94; experiment: flow, Jurkat, 100 nM Ab
[7] = target: T6, Human Clec7A; experiment: flow, Jurkat, 100 nM Ab
[8] = target: T7, Human Clec4E; experiment: flow, Jurkat, 100 nM Ab
[9] = target: T9, human CD161 (human, UniProt Q12918 1-225); experiment: flow, Jurkat, Ab titration
T9 construct: UniProt Q12918; also called hCD161; KLRB1

[10] = target: T1, cynomolgus CD161; experiment: flow, Jurkat, Ab titration
[11] = target: T9, human CD161; experiment: flow, Jurkat, Ab titration; remark: listed apart in the source
Description: (§1) To measure binding, Jurkat cells expressing hCD161 or cynoCD161 were incubated with 0.01 nM to either 0.1 μM or 0.3 μM anti-CD161 antibodies as listed in Table 12. Jurkat cells expressing cynoCD161 were prepared using the methods described in Example 7. Volumes were sufficiently large such that ligand was depleted less than 10%. Following a three-hour incubation on ice, cells were washed and stained with fluorescent anti-human secondary antibody. The cells were washed, and labeling of antibody binding was assessed by flow cytometry to determine the MFI as a function of anti-CD161 antibody concentration. Raw MFI (top panel) and MFI normalized to the maximum value in each dataset (bottom panel) are shown for binding to hCD161 (FIG. 7C) and to cynoCD161 (FIG. 7D).

[12] = target: T1, cynomolgus CD161; experiment: flow, Jurkat, Ab titration
Description: as §1

[13] = target: T9, human CD161; experiment: flow cytometry titration of soluble IgG on Jurkat hCD161+ cells, fluorescent secondary antibody, MFI against Ab concentration (log [M])
Description: as §1

[14] = target: T1, cynomolgus CD161; experiment: flow cytometry titration of soluble IgG on Jurkat cynoCD161+ cells, fluorescent secondary antibody, MFI against concentration (log [M])
Description: as §1

binding result [1] | MFI normalized to WT [2] | MFI normalized to WT [3] | MFI normalized to WT [4] | MFI normalized to WT [5] | MFI normalized to WT [6] | MFI normalized to WT [7] | MFI normalized to WT [8] | fold binding vs HP-3G10 [9] [fold] | fold binding vs HP-3G10 [10] [fold] | Kd [11] [nM] | Kd [12] [nM] | EC50 (read off the curve) [13] [nM] | EC50 (read off the curve) [14] [nM] | Binder
no binding (tested: 100 nM) | 0.89 | 1.05 | 1.07 | 0.92 | – | – | – | – | – | – | – | – | – | anti-CD161 KW17 (antibody, V domains shown, Human, lambda light chain; scFv-Fc or full IgG not clear; also called KW17-Fc) VH: not shown VL: QSVLTQPPSVSGAPGQRVTISCTGSSSNIGAGYDVHWYQQLPGTAPKLLIYGNSNRPSGVPDRFSGSKSGTSASLAITGLQAEDEADYYCQSYDSSHTVFGGGTQLTVL
no binding (tested: 100 nM) | – | – | – | – | 0.97 | 1.16 | 0.97 | – | – | – | – | – | – | KW17.3.4 (antibody, V domains shown) VH: not shown VL: QSVLTQPPSVSGAPGQRVTISCTGSSSNIGAGYDVHWYQQLPGTAPKLLIYGNSNRPSGVPDRFSGSQSGTSASLAITGLQAEDEADYYCQSYNSGHTVFGGGTQLTVL
– | – | – | – | – | 1.13 | 1.25 | 0.99 | ~10 | ~10 | 0.233 | 0.247 | ~0.2 | – | KW1.2.1 (antibody, V domains shown) VH: EVQLVESGGGLVQPGGSLRLSCAASGSTFSSYAMSWVRQAPGKGLEWVSTISGSGGSTYYADSVKGRFTISRDNSRNTLYLQMNSLRAEDTAVYYCARGGLIPSGFDYWGQGTLVTVSS VL: DIQMTQSPSSPSASVGDRVTITCRASQSISSYLNWYQQKPGKAPKLLIYAASSLLSGVPSRFSGSGSGTDFTLTISSLQPEDFATYYCQQTYSTPLTFGQGTKVEIK
– | – | – | – | – | 1.36 | 1.11 | 1.68 | – | – | – | – | – | – | KM12.2.3 (antibody, human IgG1, V domains shown) VH: EVQLVESGGGLVQPGGSLRLSCAASGFTFSSYAMSWIRQAPGKGLEWVSAISGSGGSIYYADSVKGRFTISRDNSKNTLYLQMNSLRAEDTAVYYCARGYSDSYFYGPYYTFDYWGQGTLVTVSS VL: DIQMTQSPSSLSASVGDRVTITCRASQGISSYLNWYQQKPGKAPKLLIYAASSLQSGVSSRFSGSGSGTDFTLTISSLQPEDFATYYCQQSYNTPLTFGQGTKVEIK
– | – | – | – | – | 1.01 | 1.18 | 0.88 | – | – | – | – | – | – | KW7.3.7 (antibody, V domains shown) VH: EVQLVESGGGLVQPGGSLRLSCAASGFTFSSYAMSWVRQAPGKGLEWVSATSGSGGSTYYADSAKGRFTISRDNSKNTLYLQMNSLRAEDTAVYYCARGGYLPDAFDYWGRGTLVTVSS VL: DIQMTQSPSSLSASVGDRVTITCWASQSISSYLNWYQQEPGKAPKLLIYAASSLQSGVPSRFSGSGSGTDFTLTISSLQPEDFATYYCQQTYSTPLTFGQGTKVEIK
– | – | – | – | – | 1.07 | 1.38 | 1.17 | ~10 | ~10 | 0.249 | 0.274 | ~0.4 | ~0.3 | KW1.3.12 (antibody, human IgG1, V domains shown) VH: EVQLVESGGGLVQPGGSLRLSCAASGFTFSSYAMSWVRQAPGKGLEWVSTISGSGGSTYYADSVKGRFTISRDNSRNTLYLQMNSLRAEDTAVYYCARGGLIPSGFDYWGQGTLVTVSS VL: DIQMTQSPSSLSASVGDRVTITCRASQSISSYLNWYQQKPGKAPKLLIYAASSLLSGVPSRFSGSGSGTDFTLTISSLQPEDFATYYCQQTYSAPLTFGQGTKVEIK
– | – | – | – | – | 1.29 | 1.46 | 1.1 | ~10 | ~10 | 0.207 | 0.24 | ~0.2 | – | KW7.2.2 (antibody, V domains shown) VH: not shown VL: DIQMTQSPSSLSASVGDRVTITCRASQSISSYLNWYQQKPGKAPRFLIYAASSLQSGVPSRFSGSGSGTDFTLTISSLQPEDFATYYCQQTYSTPLTFGQGTKVEIK
no binding (tested: 100 nM) | – | – | – | – | 0.84 | 1.03 | 0.85 | – | – | – | – | – | – | KW9.3.3 (antibody, V domains shown) VH: EVQLVESGGGLVQPGGSLRLSCAASGFTFSSYAMSWVRQAPGKGLEWVSAISGSGGRTYYADSVKGRFTISRDNSKNTLYLQMNSLRAEDTAMYYCARGPGYMYLYGDSFFEYWGQGTLVTVSS VL: DIQMAQSPSSLSASVGDRVTITCRASQGISSYLNWYQQKPGKAPKLLIYAASSLQSGVPSRFSGSGYGTDFTLTISSLQPEDFATYYCQQSYSTPLTFGQGTKVEIK
– | – | – | – | – | 1.2 | 1.36 | 1.01 | ~10 | ~10 | 0.0925 | 0.225 | ~0.09 | ~0.2 | KM12.4.7 (antibody, V domains shown) VH: EVQLVESGGGLVQPGGSLRLPCAASGFTFSSYAMSWIRQAPGKGLEWVSAISGSGGSIYYADSVKGRFTISRDNSKNTLYLQMDSLRAEDTAVYYCARGYSDSYFYGPYYTFDYWGQGTLVTVSS VL: not shown
